Measured values: patent US20200239543A1 (ALX ONCOLOGY, published 2020)

T1: mouse CD47 (mouse, UniProt Q61735 19-140, limits assumed)
T1 construct: also called mouse CD47 protein
T1 sequence (looked up): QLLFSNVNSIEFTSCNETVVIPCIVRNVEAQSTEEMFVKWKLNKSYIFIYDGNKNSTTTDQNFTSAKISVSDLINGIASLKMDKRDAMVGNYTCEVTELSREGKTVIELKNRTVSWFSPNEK

T2: rat CD47 (rat, UniProt P97829 19-140, limits assumed)
T2 sequence (looked up): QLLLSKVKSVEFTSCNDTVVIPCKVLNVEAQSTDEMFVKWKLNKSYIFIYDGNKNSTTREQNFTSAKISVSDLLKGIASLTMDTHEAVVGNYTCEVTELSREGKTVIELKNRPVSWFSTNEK

B1: SIRP-α D1 variant fused to Fc variant, SEQ ID NO: 214 (Fc fusion)
chain: EEELQVIQPDKSVLVAAGETATLRCTATSLFPVGPIQWFRGAGPGRELIYNQREGPFPRVTTVSDLTKRNNMDFSIRIGAITPADAGTYYCVKFRKGSPDDVEFKSGAGTELSVRAKPSERKSSVECPPCPAPPVAGPSVFLFPPKPKDTLMISRTPEVTCVVVDVSHEDPEVQFNWYVDGVEVHNAKTKPREEQFASTFRVVSVLTVVHQDWLNGKEYKCKVSNKGLPSSIEKTISKTKGQPREPQVYTLPPSREEMTKNQVSLTCLVKGFYPSDIAVEWESNGQPENNYKTTPPMLDSDGSFFLYSKLTVDKSRWQQGNVFSCSVMHEALHNHYTQKSLSLSPG
B2: SIRP-α D1 variant polypeptide of SEQ ID NO: 54 (receptor)
chain: EEELQVIQPDKSVSVAAGESAILHCTVTSLFPVGPIQWFRGAGPARELIYNQRQGPFPRVTTVSESTKRENMDFSISISNITPADAGTYYCVKFRKGSPDTEFKSGAGTELSVRAKPS
notes: engineered SIRP-α D1 domain
B3: SIRP-α D1 variant polypeptide of SEQ ID NO: 59 (receptor)
chain: EEELQIIQPDKSVSVAAGESAILHCTITSLFPVGPIQWFRGAGPARVLIYNQKQGPFPRVTTVSETTKRENMDFSISISNITPADAGTYYCIKFRKGSPDTEFKSGAGTELSVRAKPS
notes: engineered SIRP-α D1 domain
B4: SIRP-α D1 variant polypeptide of SEQ ID NO: 58 (receptor)
chain: EEELQIIQPDKSVSVAAGESAILHCTITSLFPVGPIQWFRGAGPARELIYNQRQGPFPRVTTVSETTKRENMDFSISISNITPADAGTYYCIKFRKGSPDTEFKSGAGTELSVRAKPS
notes: engineered SIRP-α D1 domain
B5: SIRP-α D1 variant polypeptide of SEQ ID NO: 62 (receptor)
chain: EEELQIIQPDKSVSVAAGESAILHCTITSLFPVGPIQWFRGAGPARVLIYNQRQGPFPRVTTVSESTKRENMDFSISISNITPADAGTYYCIKFRKGSPDTEFKSGAGTELSVRAKPS
notes: engineered SIRP-α D1 domain
B6: SIRP-α D1 variant polypeptide of SEQ ID NO: 63 (receptor)
chain: EEELQIIQPDKSVSVAAGESAILHCTITSLFPVGPIQWFRGAGPARVLIYNQRQGPFPRVTTVSETTKRENMDFSISISNITPADAGTYYCVKFRKGSPDTEFKSGAGTELSVRAKPS
notes: engineered SIRP-α D1 domain
B7: SIRP-α D1 variant polypeptide of SEQ ID NO: 60 (receptor)
chain: EEELQIIQPDKSVSVAAGESAILHCTITSLFPVGPIQWFRGAGPARVLIYNQREGPFPRVTTVSETTKRENMDFSISISNITPADAGTYYCIKFRKGSPDTEFKSGAGTELSVRAKPS
notes: engineered SIRP-α D1 domain
B8: SIRP-α D1 variant polypeptide of SEQ ID NO: 61 (receptor)
chain: EEELQIIQPDKSVSVAAGESAILHCTITSLFPVGPIQWFRGAGPARVLIYNQRQGHFPRVTTVSETTKRENMDFSISISNITPADAGTYYCIKFRKGSPDTEFKSGAGTELSVRAKPS
notes: engineered SIRP-α D1 domain
B9: SIRP-α D1 variant polypeptide of SEQ ID NO: 56 (receptor)
chain: EEELQIIQPDKSVSVAAGESAILHCTVTSLFPVGPIQWFRGAGPARVLIYNQRQGPFPRVTTVSETTKRENMDFSISISNITPADAGTYYCIKFRKGSPDTEFKSGAGTELSVRAKPS
notes: engineered SIRP-α D1 domain
B10: SIRP-α D1 variant polypeptide of SEQ ID NO: 57 (receptor)
chain: EEELQIIQPDKSVSVAAGESAILHCTITSLIPVGPIQWFRGAGPARVLIYNQRQGPFPRVTTVSETTKRENMDFSISISNITPADAGTYYCIKFRKGSPDTEFKSGAGTELSVRAKPS
notes: engineered SIRP-α D1 domain
B11: SIRP-α D1 variant polypeptide of SEQ ID NO: 86 (receptor)
chain: EEELQIIQPDKSVLVAAGETATLRCTITSLFPVGPIQWFRGAGPGRVLIYNQRQGPFPRVTTVSDTTKRNNMDFSIRIGNITPADAGTYYCIKFRKGSPDDVEFKSGAGTELSVRAKPS
notes: engineered SIRP-α D1 domain
B12: SIRP-α D1 variant polypeptide of SEQ ID NO: 198 (receptor)
chain: EEELQIIQPDKSVLVAAGETATLRCTITSLYPVGPIQWFRGAGPGRELIYNQREGPFPRVTTVSDTTKRNNMDFSIRIGAITPADAGTYYCVKFRKGSPDDVEFKSGAGTELSVRAKPS
B13: SIRP-α D1 variant polypeptide of SEQ ID NO: 208 (receptor)
chain: EEELQIIQPDKSVLVAAGETATLRCTITSLYPVGPIQWFRGAGPGRELIYNQREGPFPRVTTVSDTTKRNNMDFSIRIGAITPADAGTYYCVKFRKGIPDDVEFKSGAGTELSVRAKPS
B14: SIRP-α D1 variant polypeptide of SEQ ID NO: 204 (receptor)
chain: EEELQIIQPDKSVLVAAGETATLRCTITSLRPVGPIQWFRGAGPGRELIYNQRDGPFPRVTTVSDTTKRNNMDFSIRIGAITPADAGTYYCVKFRKGSPDDVEFKSGAGTELSVRAKPS
B15: SIRP-α D1 variant polypeptide of SEQ ID NO: 200 (receptor)
chain: EEELQIIQPDKSVLVAAGETATLRCTITSLFPVGPIQWFRGAGPGRELIYNQREGPFPRVTTVSDTTKRNNMDFSIRIGAITPADAGTYYCVKFRKGIPDDVEFKSGAGTELSVRAKPS
B16: SIRP-α D1 variant polypeptide of SEQ ID NO: 207 (receptor)
chain: EEELQIIQPDKSVLVAAGETATLRCTITSLYPVGPIQWFRGAGPGRELIYNQRDGPFPRVTTVSDTTKRNNMDFSIRIGAITPADAGTYYCVKFRKGSPDDVEFKSGAGTELSVRAKPS
B17: SIRP-α D1 variant polypeptide of SEQ ID NO: 205 (receptor)
chain: EEELQIIQPDKSVLVAAGETATLRCTITSLRPVGPIQWFRGAGPGRELIYNQREGPFPRVTTVSDTTKRNNMDFSIRIGAITPADAGTYYCVKFRKGIPDDVEFKSGAGTELSVRAKPS
B18: SIRP-α D1 variant polypeptide of SEQ ID NO: 199 (receptor)
chain: EEELQIIQPDKSVLVAAGETATLRCTITSLFPVGPIQWFRGAGPGRELIYNQRDGPFPRVTTVSDTTKRNNMDFSIRIGAITPADAGTYYCVKFRKGSPDDVEFKSGAGTELSVRAKPS
B19: SIRP-α D1 variant fused to Fc variant, SEQ ID NO: 97 (Fc fusion)
chain: EEELQVIQPDKSVLVAAGETATLRCTATSLFPVGPIQWFRGAGPGRELIYNQRQGPFPRVTTVSDLTKRNNMDFSIRIGNITPADAGTYYCVKFRKGSPDDVEFKSGAGTELSVRAKPSDKTHTCPPCPAPEAAGAPSVFLFPPKPKDTLMISRTPEVTCVVVDVSHEDPEVKFNWYVDGVEVHNAKTKPREEQYASTYRVVSVLTVLHQDWLNGKEYKCKVSNKALPAPIEKTISKAKGQPREPQVYTLPPSREEMTKNQVSLTCLVKGFYPSDIAVEWESNGQPENNYKTTPPVLDSDGSFFLYSKLTVDKSRWQQGNVFSCSVMHEALHNHYTQKSLSLSPGK
B20: SIRP-α D1 variant fused to Fc variant, SEQ ID NO: 104 (Fc fusion)
chain: EEELQIIQPDKSVLVAAGETATLRCTITSLFPVGPIQWFRGAGPGRELIYNQREGPFPRVTTVSDTTKRNNMDFSIRIGAITPADAGTYYCVKFRKGSPDDVEFKSGAGTELSVRAKPSDKTHTCPPCPAPEAAGAPSVFLFPPKPKDTLMISRTPEVTCVVVDVSHEDPEVKFNWYVDGVEVHNAKTKPREEQYASTYRVVSVLTVLHQDWLNGKEYKCKVSNKALPAPIEKTISKAKGQPREPQVYTLPPSREEMTKNQVSLTCLVKGFYPSDIAVEWESNGQPENNYKTTPPVLDSDGSFFLYSKLTVDKSRWQQGNVFSCSVMHEALHNHYTQKSLSLSPGK
B21: engineered SIRP-α D1 variant construct that does not bind CD47, SEQ ID NO: 215 (Fc fusion)
chain: EEELQVIQPDKSVLVAAGETATLRCTATSLIPRGPIQWFRGAGPGRELIYNRKEGHFPRVTTVSDLTKRNNMDFSIRIGNITPADAGTYYCVKFRKGSPDDVEFKSGAGTELSVRAKPSDKTHTCPPCPAPEAAGAPSVFLFPPKPKDTLMISRTPEVTCVVVDVSHEDPEVKFNWYVDGVEVHNAKTKPREEQYASTYRVVSVLTVLHQDWLNGKEYKCKVSNKALPAPIEKTISKAKGQPREPQVYTLPPSREEMTKNQVSLTCLVKGFYPSDIAVEWESNGQPENNYKTTPPVLDSDGSFFLYSKLTVDKSRWQQGNVFSCSVMHEALHNHYTQKSLSLSPGK
notes: negative control; also called negative control
B22: SIRP-α D1 variant fused to Fc variant, SEQ ID NO: 100 (Fc fusion)
chain: EEELQVIQPDKSVLVAAGETATLRCTATSLFPVGPIQWFRGAGPGRELIYNQREGPFPRVTTVSDLTKRNNMDFSIRIGAITPADAGTYYCVKFRKGSPDDVEFKSGAGTELSVRAKPSDKTHTCPPCPAPEAAGAPSVFLFPPKPKDTLMISRTPEVTCVVVDVSHEDPEVKFNWYVDGVEVHNAKTKPREEQYASTYRVVSVLTVLHQDWLNGKEYKCKVSNKALPAPIEKTISKAKGQPREPQVYTLPPSREEMTKNQVSLTCLVKGFYPSDIAVEWESNGQPENNYKTTPPVLDSDGSFFLYSKLTVDKSRWQQGNVFSCSVMHEALHNHYTQKSLSLSPGK

Key:
human CD47 [1] = target: T3, human CD47 (human, UniProt Q08722 19-139); experiment: SPR (Biacore T100 and ProteOn XPR36)
T3 construct: extracellular domain; also called CD47 ECD
T3 sequence (Q08722 19-139 limits assumed): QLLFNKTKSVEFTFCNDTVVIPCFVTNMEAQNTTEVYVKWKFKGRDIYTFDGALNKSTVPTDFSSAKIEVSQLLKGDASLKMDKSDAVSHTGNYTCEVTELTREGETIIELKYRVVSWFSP

mouse CD47 [2] = target: T1, mouse CD47; experiment: SPR (Biacore T100 and ProteOn XPR36)
rat CD47 = target: T2, rat CD47; experiment: SPR (Biacore T100 and ProteOn XPR36)
human CD47 [3] = target: T3, human CD47; experiment: SPR, 25 C, 1:1 Langmuir fit
human CD47 [4] = target: T3, human CD47; experiment: SPR; protein made in E. coli
human CD47 [5] = target: T3, human CD47; experiment: SPR, 25 C, 1:1 Langmuir fit; remark: listed apart in the source
mouse CD47 [6] = target: T1, mouse CD47; experiment: SPR, 25 C, 1:1 Langmuir fit
human CD47 [7] = target: T3, human CD47; experiment: SPR as in Example 1

Row | Binder | Kd (human CD47 [1]) | Kd (mouse CD47 [2]) | Kd (rat CD47) | Kd (human CD47 [3]) | Kd (human CD47 [4]) | also measured
1 | B1 | 2 nM | 63 nM | 80 nM |  |  | 
2 | B2 |  |  |  | 2.7 nM | 2.7 nM | 
3 | B3 |  |  |  | 14 nM | 14 nM | 
4 | B4 |  |  |  | 0.16 nM | 0.16 nM | 
5 | B5 |  |  |  | 0.13 nM | 0.13 nM | 
6 | B6 |  |  |  | 0.089 nM | 0.089 nM | 
7 | B7 |  |  |  | 0.38 nM | 0.38 nM | 
8 | B8 |  |  |  | 0.38 nM | 0.38 nM | 
9 | B9 |  |  |  | 0.2 nM | 0.2 nM | 
10 | B10 |  |  |  | 0.36 nM | 0.36 nM | 
11 | B11 |  |  |  |  |  | Kd (human CD47 [5]): 0.0144 nM; Kd (mouse CD47 [6]): 43 nM
12 | B12 | 0.155 nM | 1.41 nM | 9.88 nM |  |  | 
13 | B13 | 0.219 nM | 0.832 nM | 5.17 nM |  |  | 
14 | B14 | 0.653 nM | 0.448 nM | 3.42 nM |  |  | Kd (human CD47 [5]): 3.49 nM; Kd (mouse CD47 [6]): 5.21 nM
15 | B15 | 0.304 nM | 1.17 nM | 14.2 nM |  |  | 
16 | B16 | 1.04 nM | 0.88 nM | 5.9 nM |  |  | 
17 | B17 | 0.248 nM | 0.569 nM | 4.28 nM |  |  | 
18 | B18 | 1.26 nM | 1.25 nM | 10.7 nM |  |  | 
19 | B19 |  |  |  |  |  | Kd (human CD47 [7]): 1.09 nM; Kd (human CD47 [5]): 1.55 nM
20 | B20 |  |  |  |  |  | Kd (human CD47 [5]): 0.0919 nM; Kd (mouse CD47 [6]): 8.04 nM
21 | B21 |  |  |  |  |  | binding result (human CD47 [1]): no binding; binding result (mouse CD47 [2]): no binding; binding result (rat CD47): no binding
22 | B22 |  |  |  |  |  | Kd (human CD47 [7]): 1.79 nM; Kd (human CD47 [5]): 2.69 nM; Kd (mouse CD47 [6]): 63.2 nM
